Measured values from publication PMC9482650, “Quantitative fragmentomics allow affinity mapping of interactomes” (Nature Communications, 2022).

Experiments:
Assay in all cases: holdup assay
Design in all cases: key: below the threshold = too weak to quantify, mostly under pKd 3.1 to 4
Conditions in all cases: plain residues with an end cap or a label only (N-terminal biotin on a linker: ado-ado)
DLG1_1, Q12959 = target: DLG1_1, Q12959
GRIP1_5, Q9Y3R0 = target: T1, GRIP1_5, Q9Y3R0
T1 sequence (Q9Y3R0 568-668, limits assumed, looked up): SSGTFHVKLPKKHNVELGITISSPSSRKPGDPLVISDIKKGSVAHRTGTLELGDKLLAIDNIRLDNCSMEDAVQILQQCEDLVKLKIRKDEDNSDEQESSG

PDZRN4_1, Q6ZMN7 = target: PDZRN4_1, Q6ZMN7
Sequence of PDZRN4_1, Q6ZMN7 (Q6ZMN7 213-318): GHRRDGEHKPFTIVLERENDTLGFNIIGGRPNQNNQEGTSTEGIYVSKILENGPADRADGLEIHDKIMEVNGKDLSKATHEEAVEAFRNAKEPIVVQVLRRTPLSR

LNX1_3, Q8TBB1 = target: LNX1_3, Q8TBB1
Sequence of LNX1_3, Q8TBB1 (Q8TBB1 500-596): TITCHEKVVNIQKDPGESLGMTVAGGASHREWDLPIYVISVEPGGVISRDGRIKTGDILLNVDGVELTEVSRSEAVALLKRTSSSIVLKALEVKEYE

SNX27, Q96L92 = target: SNX27, Q96L92
TJP2_1, Q9UDY2 = target: TJP2_1, Q9UDY2
Sequence of TJP2_1, Q9UDY2 (Q9UDY2 24-128): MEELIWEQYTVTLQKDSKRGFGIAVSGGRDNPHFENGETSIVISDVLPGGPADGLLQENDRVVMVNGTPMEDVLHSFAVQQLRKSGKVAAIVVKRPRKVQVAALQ

LIN7B, Q9HAP6 = target: T2, LIN7B, Q9HAP6
T2 sequence (Q9HAP6 88-185, limits assumed, looked up): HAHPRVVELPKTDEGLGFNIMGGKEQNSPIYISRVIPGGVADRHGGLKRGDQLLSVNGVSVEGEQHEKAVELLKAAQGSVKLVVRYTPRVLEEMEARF

GRIP1_4, Q9Y3R0 = target: T3, GRIP1_4, Q9Y3R0
T3 sequence (Q9Y3R0 467-571, limits assumed, looked up): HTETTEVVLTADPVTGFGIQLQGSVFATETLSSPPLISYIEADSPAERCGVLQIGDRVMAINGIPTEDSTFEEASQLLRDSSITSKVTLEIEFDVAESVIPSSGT

Inadl_2, Q8NI35 = target: Inadl_2, Q8NI35
Sequence of Inadl_2, Q8NI35 (Q8NI35 238-335): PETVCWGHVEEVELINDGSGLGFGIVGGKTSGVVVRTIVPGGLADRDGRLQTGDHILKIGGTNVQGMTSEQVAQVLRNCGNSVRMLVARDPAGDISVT

MPP2, Q14168 = target: T4, MPP2, Q14168
T4 sequence (Q14168 180-250, limits assumed, looked up): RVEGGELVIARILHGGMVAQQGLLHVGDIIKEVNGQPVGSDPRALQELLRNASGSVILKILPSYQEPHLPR

RAPGEF6, Q8TEU7 = target: T5, RAPGEF6, Q8TEU7
T5 sequence (Q8TEU7 525-625, limits assumed, looked up): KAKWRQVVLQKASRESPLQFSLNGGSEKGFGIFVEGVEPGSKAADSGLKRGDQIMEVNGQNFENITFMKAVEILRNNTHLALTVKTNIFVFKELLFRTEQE

LRRC7, Q96NW7 = target: T6, LRRC7, Q96NW7
T6 sequence (Q96NW7 1440-1537, limits assumed, looked up): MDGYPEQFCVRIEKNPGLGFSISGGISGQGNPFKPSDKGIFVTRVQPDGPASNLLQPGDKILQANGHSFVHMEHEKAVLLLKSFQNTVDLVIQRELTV

NHERF2_2, Q15599 = target: NHERF2_2, Q15599
Sequence of NHERF2_2, Q15599 (Q15599 142-238): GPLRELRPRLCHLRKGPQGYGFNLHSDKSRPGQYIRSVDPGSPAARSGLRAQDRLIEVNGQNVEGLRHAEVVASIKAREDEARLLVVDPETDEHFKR

DLG3_3, Q92796 = target: T7, DLG3_3, Q92796
T7 sequence (Q92796 374-475, limits assumed, looked up): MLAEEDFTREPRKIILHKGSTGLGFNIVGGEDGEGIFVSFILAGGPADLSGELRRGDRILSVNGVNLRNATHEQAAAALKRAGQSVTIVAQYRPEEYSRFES

MAST2, Q6P0Q8 = target: MAST2, Q6P0Q8
Sequence of MAST2, Q6P0Q8 (Q6P0Q8 1099-1202): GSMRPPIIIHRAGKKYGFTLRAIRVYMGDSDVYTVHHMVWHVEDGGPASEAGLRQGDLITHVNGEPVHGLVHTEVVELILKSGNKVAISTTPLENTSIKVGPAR

PARD3B_1, Q8TEW8 = target: T8, PARD3B_1, Q8TEW8
T8 sequence (Q8TEW8 196-299, limits assumed, looked up): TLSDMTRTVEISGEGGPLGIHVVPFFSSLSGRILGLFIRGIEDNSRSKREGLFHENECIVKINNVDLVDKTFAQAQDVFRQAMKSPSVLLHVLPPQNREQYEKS

MPDZ_12, O75970 = target: T9, MPDZ_12, O75970
T9 sequence (O75970 1857-1958, limits assumed, looked up): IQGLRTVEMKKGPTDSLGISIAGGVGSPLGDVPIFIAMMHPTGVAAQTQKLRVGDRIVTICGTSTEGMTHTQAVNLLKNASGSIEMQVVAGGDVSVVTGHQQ

PDZD2_2, O15018 = target: T10, PDZD2_2, O15018
T10 sequence (O15018 329-429, limits assumed, looked up): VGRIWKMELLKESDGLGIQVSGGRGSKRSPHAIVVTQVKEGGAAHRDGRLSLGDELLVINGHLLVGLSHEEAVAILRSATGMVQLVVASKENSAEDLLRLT

DFNB31_2, Q9P202 = target: T11, DFNB31_2, Q9P202
T11 sequence (Q9P202 274-371, limits assumed, looked up): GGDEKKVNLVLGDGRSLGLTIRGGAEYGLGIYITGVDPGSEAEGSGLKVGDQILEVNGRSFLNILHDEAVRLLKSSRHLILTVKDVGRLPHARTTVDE

SCRIB_3, Q14160 = target: SCRIB_3, Q14160
Sequence of SCRIB_3, Q14160 (Q14160 999-1103): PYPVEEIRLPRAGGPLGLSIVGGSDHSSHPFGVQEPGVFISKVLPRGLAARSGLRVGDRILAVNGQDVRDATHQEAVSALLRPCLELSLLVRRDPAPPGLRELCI

DFNB31_3, Q9P202 = target: T12, DFNB31_3, Q9P202
T12 sequence (Q9P202 811-907, limits assumed, looked up): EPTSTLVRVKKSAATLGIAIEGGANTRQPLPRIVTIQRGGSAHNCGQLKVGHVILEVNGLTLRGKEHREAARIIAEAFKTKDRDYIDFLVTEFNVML

NHERF3_4, Q5T2W1 = target: T13, NHERF3_4, Q5T2W1
T13 sequence (Q5T2W1 373-468, limits assumed, looked up): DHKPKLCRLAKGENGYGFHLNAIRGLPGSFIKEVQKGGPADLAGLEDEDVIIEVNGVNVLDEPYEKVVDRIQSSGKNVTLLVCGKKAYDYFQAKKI

GRIP2_5, Q9C0E4 = target: GRIP2_5, Q9C0E4
Sequence of GRIP2_5, Q9C0E4 (Q9C0E4 544-642): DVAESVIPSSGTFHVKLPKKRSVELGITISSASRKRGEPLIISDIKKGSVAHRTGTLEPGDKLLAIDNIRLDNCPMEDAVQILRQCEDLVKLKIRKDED

SCRIB_1, Q14160 = target: SCRIB_1, Q14160
Sequence of SCRIB_1, Q14160 (Q14160 718-814): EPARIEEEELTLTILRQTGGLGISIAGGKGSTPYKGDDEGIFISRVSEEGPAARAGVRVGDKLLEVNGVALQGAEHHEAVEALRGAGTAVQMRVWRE

Binder | pKd (DLG1_1, Q12959) | pKd (GRIP1_5, Q9Y3R0) | pKd (PDZRN4_1, Q6ZMN7) | pKd (LNX1_3, Q8TBB1) | pKd (SNX27, Q96L92) | pKd (TJP2_1, Q9UDY2) | pKd (LIN7B, Q9HAP6) | pKd (GRIP1_4, Q9Y3R0) | pKd (Inadl_2, Q8NI35) | pKd (MPP2, Q14168) | pKd (RAPGEF6, Q8TEU7) | pKd (LRRC7, Q96NW7) | pKd (NHERF2_2, Q15599) | pKd (DLG3_3, Q92796) | pKd (MAST2, Q6P0Q8) | pKd (PARD3B_1, Q8TEW8) | pKd (MPDZ_12, O75970) | pKd (PDZD2_2, O15018) | pKd (DFNB31_2, Q9P202) | pKd (SCRIB_3, Q14160) | also measured
NASRTRITFV [MCM7, P33993] | 4.83 | below the threshold | below the threshold | below the threshold | 4.85 | 5.34 | 3.9 | below the threshold | 4.61 | below the threshold | below the threshold | below the threshold | 3.63 | 4.47 | 4.99 | below the threshold | 3.77 | 4.7 | below the threshold | 4.37 | pKd (DFNB31_3, Q9P202): 4.74; pKd (NHERF3_4, Q5T2W1): 3.53; pKd (GRIP2_5, Q9C0E4): below the threshold; pKd (SCRIB_1, Q14160): 4.26
QSPPNIYYKV [EFNB3, Q15768] | below the threshold | below the threshold | below the threshold | 4.47 | 3.89 | below the threshold | below the threshold | below the threshold | below the threshold | below the threshold | below the threshold | below the threshold | 3.56 | 3.56 | 4.54 | 3.77 | below the threshold | 3.67 | below the threshold | below the threshold | pKd (DFNB31_3, Q9P202): 4.1; pKd (NHERF3_4, Q5T2W1): 3.54; pKd (GRIP2_5, Q9C0E4): below the threshold; pKd (SCRIB_1, Q14160): below the threshold
PAPGQHTTQI [STK16, O75716] | 3.56 | below the threshold | below the threshold | below the threshold | 4.27 | below the threshold | 3.92 | below the threshold | below the threshold | below the threshold | 3.49 | below the threshold | 3.78 | below the threshold | 5.27 | 3.69 | below the threshold | 3.91 | below the threshold | 4.18 | pKd (DFNB31_3, Q9P202): 4.23; pKd (NHERF3_4, Q5T2W1): below the threshold; pKd (GRIP2_5, Q9C0E4): below the threshold; pKd (SCRIB_1, Q14160): 3.84
DSATVRTYSC [PPFIA1, Q13136] | below the threshold | below the threshold | below the threshold | below the threshold | below the threshold | below the threshold | 3.7 | below the threshold | below the threshold | below the threshold | below the threshold | below the threshold | below the threshold | below the threshold | 3.98 | 3.57 | below the threshold | 3.7 | below the threshold | below the threshold | pKd (DFNB31_3, Q9P202): 3.51; pKd (NHERF3_4, Q5T2W1): below the threshold; pKd (GRIP2_5, Q9C0E4): below the threshold; pKd (SCRIB_1, Q14160): below the threshold
PASAKGPLGV [CLDN19, Q8N6F1] | below the threshold | below the threshold | below the threshold | below the threshold | below the threshold | below the threshold | below the threshold | below the threshold | below the threshold | below the threshold | below the threshold | below the threshold | below the threshold | below the threshold | below the threshold | below the threshold | below the threshold | below the threshold | below the threshold | below the threshold | pKd (DFNB31_3, Q9P202): below the threshold; pKd (NHERF3_4, Q5T2W1): below the threshold; pKd (GRIP2_5, Q9C0E4): below the threshold; pKd (SCRIB_1, Q14160): below the threshold
QFTLRHWLKV [SLC6A3, Q01959] | below the threshold | below the threshold | below the threshold | 3.83 | 3.76 | below the threshold | below the threshold | below the threshold | below the threshold | 3.87 | below the threshold | below the threshold | below the threshold | below the threshold | 4.82 | 3.87 | below the threshold | below the threshold | below the threshold | 3.51 | pKd (DFNB31_3, Q9P202): below the threshold; pKd (NHERF3_4, Q5T2W1): 3.74; pKd (GRIP2_5, Q9C0E4): below the threshold; pKd (SCRIB_1, Q14160): below the threshold
